B1: C68.200 (antibody, V domains shown)
VH: EVQLLESGGGLVQPGGSLRLSCTASGFTFSRYALTWVRQAPGKGLEWVSAISGSGGNTNYADSVKGRFTISRDNSKNTLYLQMNSLRAEDTAVYYCAKSPRYNNDYFDFWGQGTLVTVSS
VL: DIQLTQSPSTLSASVGDRVTITCRASQSISSWLAWYQQKPGKAPKLLIYDASSLESGVPSRFSGSGSGTEFTLTISSLQPDDFATYYCQQYNTFITFGHGTRLEIK
B2: C68.203 (antibody, V domains shown)
VH: B1 VH with W47C, I51F, G56D, N57S, N59Y, N104S
VL: B1 VL with T93S, H99Q
B3: C68.121 (antibody, V domains shown)
VH: EVQLVESGGGLVKPGGSLRLSCAASGFTFSDYYMTWIRQAPGKGLEWVSKITNSNSYTHYADSVKGRFTISRDNAKNSLFLHMNSLRAEDTAVYYCARAIWIGYPDDYYMDVWGKGTTVTVSS
VL: SYELTQPPSVSVSPGQTARITCSGDTLPNQYVYWYQQKPGQAPVLLIYKDTERPSGIPERVSGSTSGTTVTLTISGVQAEDEADYYCQSADSSGTSFGGGTKLTVL
B4: C68.185 (antibody, V domains shown)
VH: QVQLVQSGAEVKKPGASVKVSCKTSGYAFTDHYVHWVRQAPGQGLEWMGVINPSGVGTSYAQMFQDRVTLTSDTSTSTVYMVLSSLRSEDTAVYYCVRDDYGVPARGWFDPWGQGTLVTVSS
VL: EVVLTQSPATLSLSPGERATLSCRASQSISSYLAWYQQKPGQAPRLLIYDASNRATGVPARFSGSGSGADFTLTISSLEAEDFALYYCQHRSNWLYTFGQGTKLEIK
B5: C68.183 (antibody, V domains shown)
VH: EVQLLESGGGLVQPGGSLRLSCVASGFTFRNFAMSWVRQAPGKGLEWVSAISGSGDSTYYADSVKGRFTISRDNSKNTLYLQVNSLRVEDTAIYYCAKGSRGSTDYFDSWGQGTLVTVSS
VL: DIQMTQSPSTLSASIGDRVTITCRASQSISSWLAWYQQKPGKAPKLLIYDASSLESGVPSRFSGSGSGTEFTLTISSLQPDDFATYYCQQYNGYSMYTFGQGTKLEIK
B6: C68.348 (antibody, V domains shown)
VH: QVQLQESGPRLVKSSGTLSLTCAVSGGSISSSKWWSWVRQPPGKGLEWIGEVYHGGSTNYNPSLKSRVTISVDKAKNQFSLKLSSVTAADSAVYYCASLDSAAVFDYWGQGTLVTVSS
VL: QSALTQPASVSGSPGQSITISCTGTSSDVGRFNYVSWYQQHPGKAPKLLIYDVSNRPSGVSNRFSGSKSGNTASLTISGLQAEDEADYYCNSYTSSSTLYVFGTGTKVTVL
B7: C68.239 (antibody, V domains shown)
VH: EVQLLESGGGLVQPGGSLRLSCAASGFTFSSYAMSWVRQAPGKGLEWVSAISGGGDNTYYADSVKGRFTISRDNSKNTLYLQMNSLRAEDTAVYFCAKNPITVVPAAWDRGYFDLWGRGTLVTVSS
VL: SYELTQPPSVSVAPRKTARITCGGNNIGSYSVHWYQQRPGQAPVLVVHDDSDRPSGIPERFSGSNSGNTATLTISRVEAGDEADYYCQVWDSSSDHRGVFGGGTKLTVL
B8: C68.175 (antibody, V domains shown)
VH: EVQLLESGGGLVQPGGSLRLSCAASGFTFSSYAMSWVRQAPGKGLEWVSGISGSGGSTYYADSVKGRFTISRDNSKNTLHLQMNSLRAEDTAVYYCAKGSRWNPDYFDYWGQGTLVTVSS
VL: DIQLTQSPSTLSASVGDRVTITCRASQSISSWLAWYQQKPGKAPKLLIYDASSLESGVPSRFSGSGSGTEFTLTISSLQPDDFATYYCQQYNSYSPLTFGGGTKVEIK
B9: C68.83 (antibody, V domains shown)
VH: EVQLVESGGGVVQPGRSLRLSCAASGFIFSSYGMHWVRQAPGKGLEWVAVIWYDGSNKYYADSVKGRFTISRDNSKNTLYLQMNSLRAEDTAVYYCARDDPEVGCSGGSCYYYYDMDVWGQGTTVTVSS
VL: SYELTQPPSVSVSPGQTARITCSGDALPKQHAHWYQQKPGQAPVLVIYKDIERPSGIPERFSGSSSGTTVTLTISGVQAEDEADYYCQSADSSVTYVVFGGGTKLTVL
B10: C68.88 (antibody, V domains shown)
VH: QVQLQESGPGLVKPSETLSLTCSVSGGPISSSRYYWGWIRQSPGEGLEWIGTIYYSGSTYYNPSFKSRVTISVDTSKNQFSLKLSSVTAADTAVYYCATRCYDFWSGYYNREMLWFDCWGQGTLVTVSS
VL: NFMLTQPHSVSESPGKTVTISCTRSSGSIASNYVQWYQQRPGSSPTTVIYENNQTPSGVPDRFSGSIDSSSNSASLTISGLKTEDEADYYCQSYDSSVVVFGGGTKLTVL
B11: C68.327 (antibody, V domains shown)
VH: EVQLLESGGGLVQPGGSLRLSCAASGFTFGSYAMSWVRQAPGKGLEWVSAISGSGGSTYYADSVKGRFTISRDNSKNTLYLQMNSLRAEDTAVYNCAKDLWDGFHWFDSWGQGTLVTVSS
VL: DIQMTQSPSSVSASVGDRVTITCRASQGISSWLAWYQQKPGKAPNLLIYSASSLQSGVPSRFSGSGSGTDFTLTISSLQPEDFATYYCQQANSFPITFGQGTRLEIK

Positions count from the first letter of the chain named.

This assay deals with T1, SARS-CoV-2 Wuhan-Hu-1 recombinant spike protein (trimer) (SARS-CoV-2 Wuhan-Hu-1, UniProt P0DTC2).
T1 construct: source: bought: Sino Biologics
Nature of the assay: ELISA. As to conditions: both partners purified. In general terms: An ELISA detects its analyte on a solid surface through an enzyme-linked reagent.
With B1, the binding result is listed as “binds”. Regarding B2, the binding result is listed as “binds”.

With B3, the binding result is “binds”. Turning to B4, the binding result is given as “binds”. The entry for B5 is “binds”; for B6 it is “binds”.

As to B7, the binding result was “binds”. The entry for B8 is “binds”; for B9 it is “binds”. As for B10, the entry is “binds”; as for B11, “binds”.

For the origin of these results see paper PMC11542851 (PLOS Pathogens, 2024).
